The results in this text go back to publication PMC6929137, “Thrombin Aptamer-Modified Metal–Organic Framework Nanoparticles: Functional Nanostructures for Sensing Thrombin and the Triggered Controlled Release of Anti-Blood Clotting Drugs”.

Data set [1] deals with vascular endothelial growth factor 165 (VEGF) (human, UniProt P15692-4 27-191). Put plainly: strand-displacement release of rhodamine 6G and Apixaban from gated NMOFs (fluorescence); 1 uM protein; background release only; 10 mM HEPES pH 7.4, 20 mM NaCl, 10 mM KCl, 10 mM MgCl2; 30 min; temperature not stated. The following applies: protein: commercial; chain copies: 2; label: none on DNA; read-out is released rhodamine 6G or Apixaban fluorescence; 11 bp duplex, 5' overhang 8 nt on aptamer strand.
Sequence of vascular endothelial growth factor 165 (VEGF) (P15692 other isoform, or with tags, fused parts or gaps): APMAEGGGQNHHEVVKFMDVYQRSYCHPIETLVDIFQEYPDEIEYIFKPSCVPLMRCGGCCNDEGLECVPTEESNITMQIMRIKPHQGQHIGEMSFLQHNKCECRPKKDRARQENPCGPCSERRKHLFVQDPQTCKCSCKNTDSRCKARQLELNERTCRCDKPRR

The target of another data set is thrombin (UniProt P00734;P00734 328-363;364-622). Put plainly: strand-displacement release of rhodamine 6G from gated NMOFs (fluorescence); thrombin 0.25-1 uM; 10 mM KCl, 10 mM MgCl2; competes with anchor strand (1); 10 mM HEPES pH 7.4, 20 mM NaCl, 10 mM KCl, 10 mM MgCl2; 30 min; temperature not stated.

B1: thrombin aptamer (2) hybridized to anchor (1) on UiO-68 NMOFs (mixed)
DNA: GGTTGGTGTGGTTGGTTTT
?: AAAACCAACCA
modifications: strand 2 (anchor): 5'-NH2-(CH2)6, DBCO-modified, clicked to azide-functionalized UiO-68 NMOF
As for B1, the results for the binding result (in data set [1]; in the data set with thrombin) were “no binding” and “binds”, respectively.
